How the values were obtained:
Type in all cases: cell-based, human
[1] = test system: ventralized AFE; assay: Induction of lung and parathyroid markers from ventralized AFE
Experimental: (§1) Mouse embryonic fibroblasts were depleted by a 24 h passage on Ma gel (Gibco) with Y-27632 (10 μM), and embryoid bodies were formed on low-adherence dishes (Costar). During embryoid body formation and differentiation, HES2 cells were reseeded at the same concentration (1:1 dilution), whereas HDF2 and HDF9 required a higher seeding (2:1-4:1 concentration) for efficient endoderm generation. Differentiations were performed in a medium of DMEM/F12 (Invitrogen) supplemented with N2 (Gibco), B27 (Gibco), ascorbic acid (50 μg/ml, Sigma). Glutamax (2 mM, Invitrogen), monothioglycerol ([…], Sigma). The following concentrations of factors were used for primitive streak formation, endoderm induction, anterior/pharyngeal endoderm induction, and subsequent anterior posterior and dorsoventral patterning: human BMP-4, 1 ng/ml and 10 ng/ml; human bFGF, 2.5 ng/ml; human activin A, 100 ng/ml; human Noggin, 200 ng/ml; Y-27632, 1 μM; SB-431542, 10 μM; human FGF10, 10 ng/ml; human FGF7, 10 ng/ml; murine EGF 20 ng/ml; and human WNT3a, 100 ng/ml. Hepatic conditions were as previously described 2 and contain BMP-4, 50 ng/ml; bFGF, 10 ng/ml; VEGF, 10 ng/ml; HGF, 10 ng/ml; TGFα, 20 ng/ml; dexamethasone, 40 ng/ml. All factors were purchased from R&D systems, except SB-431542 and Y-27632, which are from Tocris, and dexamethasone (Sigma). […]
(§2) Total RNA was extracted using Trizol (Invitrogen), phase lock tubes (5′ Prime) and the RNeasy kit (Qiagen). […] Amplified material was detected using SybrGreen (Invitrogen). Real-time quantitative PCR was performed on ABI 7900HT thermocycler (Applied Biosystems), with a 10-min step at 95° C. followed by 40 cycles of 95° C. for 15 s and 60° C. for 1 min. All experiments were done in triplicate with SYBR GreenER quantitative PCR SuperMix (Invitrogen). […] Absolute quantification was obtained in relation to a standard curve of genomic DNA dilution series. Quantified values for the gene of interest were normalized against input determined by the housekeeping genes GAPDH and β-ACTIN, qPCR for each culture well was performed in triplicate.

[2] = test system: hES cell line HES2; assay: Activin A induction of definitive endoderm from hES cells (flow cytometry, cell number); conditions: after 4 d of exposure to activin A
Experimental: hESC (HES2, National Institutes of Health code ES02 from ES Cell International; passages 25-33) were cultured on mouse embryonic fibroblasts plated at 8,000-12,000 cells/cm^2, A medium of DMEM/F12, 20% knockout serum replacement (Gibco), 0.1 mM β-mercaptoethanol (Sigma-Aldrich), and 20 ng/ml FGF-2 (R&D) was changed daily. Cells were passaged with trypsin, washed and replated at a dilution of 1:5 to 1:10. HDF2 and HDF9, hiPS cell lines, were cultured as hES2. hES and hiPS cultures were maintained in a 5% CO2/air environment, and hES differentiations were maintained in a 5% CO2/5% O2/90% N2 environment.
Mouse embryonic fibroblasts were depleted by a 24 h passage on Ma gel (Gibco) with Y-27632 (10 μM), and embryoid bodies were formed on low-adherence dishes (Costar). During embryoid body formation and differentiation, HES2 cells were reseeded at the same concentration (1:1 dilution), whereas HDF2 and HDF9 required a higher seeding (2:1-4:1 concentration) for efficient endoderm generation. Differentiations were performed in a medium of DMEM/F12 (Invitrogen) supplemented with N2 (Gibco), B27 (Gibco), ascorbic acid (50 μg/ml, Sigma). Glutamax (2 mM, Invitrogen), monothioglycerol (0.4 μM, Sigma). […]
Day 5 embryoid bodies or day 13 monolayer cultures were dissociated with trypsin/EDTA (2 min). […] Cells were analyzed on a LSRII. […]

[3] = test system: activin A-induced definitive endoderm (HES2); assay: Anteriorization of activin A-induced definitive endoderm, factors added at day 5, marker mRNA by quantitative PCR at day 9
Experimental: as §1
as §2, with “triplicate. […]” for “triplicate.”

[4] = retinoic acid added to the WKFBE cocktail
[5] = mRNA at day 9, factors added at day 5

Molecule: CC1=C(/C=C/C(C)=C/C=C/C(C)=C/C(=O)O)C(C)(C)CCC1 [retinoic acid, all-trans retinoic acid]
- expression of FOXP2, NKX2.1, GATA6 and FOXJ1 [1, 4]: increased
- expression of the pharyngeal pouch marker PAX1 [1, 4]: decreased

B1: activin A: human activin A, soluble cytokine activating the same receptor as nodal; 100 ng/ml (protein, UniProt P08476 311-426, looked up)
Inhibin beta A chain: GLECDGKVNICCKKQFFVSFKDIGWNDWIIAPSGYHANYCEGECPSHIAGTSGSSLSFHSTVINHYRMRGHSPFANLKSCCVPTKLRPMSMLYYDDGQNIIKKDIQNMIVEECGCS
modifications: Inhibin beta A chain
notes: 100 ng/ml
- cells expressing the definitive endoderm markers CXCR4, c-KIT and EPCAM [2]: > 95%

B2: sFRP3: soluble Frizzled-related protein 3, WNT antagonist (protein, UniProt Q92765 33-325, looked up)
Secreted frizzled-related …: AACEPVRIPLCKSLPWNMTKMPNHLHHSTQANAILAIEQFEGLLGTHCSPDLLFFLCAMYAPICTIDFQHEPIKPCKSVCERARQGCEPILIKYRHSWPENLACEELPVYDRGVCISPEAIVTADGADFPMDSSNGNCRGASSERCKCKPIRATQKTYFRNNYNYVIRAKVKEIKTKCHDVTAVVEVKEILKSSLVNIPRDTVNLYTSSGCLCPPLNVNEEYIIMGYEDEERSRLLLVEGSIAEKWKDRLGKKVKRWDMKLRHLGLSKSDSSNSDSTQSQKSGRNSNPRQARN
- induction of PAX9 and SOX2 when added to NOGGIN/SB-431542 ([3]; day 9, sFRP3 added with NOGGIN/SB-431542): detrimental
- SOX2 expression [3, 5]: not sufficient

B3: FGF8: fibroblast growth factor 8, agonist of FGF signaling (protein, UniProt P55075 23-233, looked up)
Fibroblast growth factor 8: QEGPGRGPALGRELASLFRAGREPQGVSQQHVREQSLVTDQLSRRLIRTYQLYSRTSGKHVQVLANKRINAMAEDGDPFAKLIVETDTFGSRVRVRGAETGLYICMNKKGKLIAKSNGKGKDCVFTEIVLENNYTALQNAKYEGWYMAFTRKGRPRKGSKTRQHQREVHFMKRLPRGHHTTEQSLRFEFLNYPPFTRSLRGSQRTWAPEPR
- parathyroid-specific marker GCM2 ([1]; AFE ventralized with WKFBE in the absence of retinoic acid): induced

B4: WNT3a: human WNT3a, agonist of canonical Wnt signaling; 100 ng/ml (protein, UniProt P56704 19-352, looked up)
Protein Wnt-3a: SYPIWWSLAVGPQYSSLGSQPILCASIPGLVPKQLRFCRNYVEIMPSVAEGIKIGIQECQHQFRGRRWNCTTVHDSLAIFGPVLDKATRESAFVHAIASAGVAFAVTRSCAEGTAAICGCSSRHQGSPGKGWKWGGCSEDIEFGGMVSREFADARENRPDARSAMNRHNNEAGRQAIASHMHLKCKCHGLSGSCEVKTCWWSQPDFRAIGDFLKDKYDSASEMVVEKHRESRGWVETLRPRYTYFKVPTERDLVYYEASPNFCEPNPETGSFGTRDRTCNVSSHGIDGCDLLCCGRGHNARAERRREKCRCVFHWCCYVSCQECTRVYDVHTCK
- CDX2 expression [3, 5]: increased

Source: US9719067B2, “Generation of anterior foregut endoderm from pluripotent cells” (Mount Sinai School of Medicine, priority 2010, dated 2017)
